Biological target: T1, Human IκBα(67-287), unhydroxylated (human, UniProt P25963 67-287)
T1 sequence (looked up): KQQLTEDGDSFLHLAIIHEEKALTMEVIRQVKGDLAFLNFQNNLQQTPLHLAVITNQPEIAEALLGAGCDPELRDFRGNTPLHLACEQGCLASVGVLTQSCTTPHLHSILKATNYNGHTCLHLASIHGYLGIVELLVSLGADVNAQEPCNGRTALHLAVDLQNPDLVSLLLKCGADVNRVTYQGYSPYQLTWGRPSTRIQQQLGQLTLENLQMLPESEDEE
Test: SPR

B1: NFκB (p50(248-321)/p65(190-321)) (complex)
chain 1: LKIVRMDRTAGCVTGGEEIYLLCDKVQKDDIQIRFYEEEENGGVWEGFGDFSPTDVHRQFAIVFKTPKYKDVNI
chain 2: NTAELKICRVNRNSGSCLGGDEIFLLCDKVQKEDIEVYFTGPGWEARGSFSQADVHRQVAIVFRTPPYADPSLQAPVRVSMQLRRPSDRELSEPMEFQYLPDTDDRHRIEEKRKRTYETFKSIMKKSPFNGP
modifications: biotin at the N-terminus
B1 gave a Kd of 0.062 ± 0.012 nM.
